The record followed here is US11542481B2, “Morphinan N-demethylase isolated from the methylobacterium thebainfresser and methods of use thereof” (priority 2017, dated 2023).

Series [1] is classed as cell-based, E. coli. As to conditions: BL21 Star (DE3) cells, toluene treated, 20 μM thebaine, overnight 30° C.
The nature of series [2]: MND enzyme stability assay. In kind it is biochemical. As to conditions: pre-incubated at 30° C. in assay buffer pH 7.0 up to 72 hours, then 20 min with thebaine. The method, then:
100 μl purified MND enzyme (˜36 μg) was incubated in 30 mM potassium phosphate buffer pH 7.0 at 30° C. for 72, 48, 24, 6, 3, and 1 hours prior to addition of 1500 pmol thebaine in a total volume of 200 μl. The assay was allowed to proceed for 20 minutes after substrate addition and was processed and analyzed as in section 23.0.

A short description of series [3]: MND enzyme pH optimum assay. As to conditions: 20 min. In kind it is biochemical. How it is done: Enzyme assays with 100 μl purified MND enzyme (˜36 μg), 7.5 μM thebaine, and 60 mM buffer (citrate buffer pH 4 and pH 5, potassium phosphate buffer pH 6.0, pH 7.0, and pH 8.0, and glycine-NaOH buffer pH 9, pH 10, and pH 10.5) in a total assay volume of 200 μl were allowed to incubate at 30° for 20 minutes. Assays with no enzyme and a purified pET28a empty vector control in pH 8.0 were included. The remaining protocol was the same as for the temperature optimum above. A supplemental pH assay was run in the same manner as above to verify the low pH results using a glycine-HCL buffer for pH 2, 3, and 4 and citrate buffer for pH 4, 5, and 6.

The nature of series [4]: Proteinase K treatment and cofactor addition, conversion of thebaine to northebaine. As to conditions: 1 hour Proteinase K digestion before 20 min assay, pH 7.0. Format: biochemical. The method, then:
The first of two assays performed included adding 1500 pmol FAD to the 200 MND enzyme assay including 100 μl purified MND (˜36 μg) and 1500 pmol thebaine in 30 mM potassium phosphate buffer pH 7.0 with and without a prior 1 hour digest (of MND enzyme) with Proteinase K. Controls included a no enzyme control, FAD addition to a no enzyme control, a pET28a empty vector control, a pET28a empty vector control with FAD, and a pET28a empty vector control digested with Proteinase K followed by FAD addition. Assays were allowed to incubate for 20 minutes and then processed as in section 23.0. A second set of assays was performed, in duplicate, to validate the results found in the previous assay in addition to testing more cofactors. This assay included the following conditions; MND enzyme, MND enzyme pre-digested with Proteinase K for 1 hour, MND enzyme digested with Proteinase K in the presence of 1% SDS and 10 mM EDTA, MND enzyme with 1% SDS and 10 mM EDTA (no Proteinase K pre-digestion), pET28a empty vector, pET28a empty vector pre-digested with Proteinase K for 1 hour, pET28a empty vector digested with Proteinase K in the presence of 1% SDS and 10 mM EDTA, MND enzyme with the addition of 1500 pmol FMN, pET28a empty vector with the addition of 1500 pmol FMN, MND enzyme with the addition of 1500 pmol PLP and pET28a empty vector with the addition of 1500 pmol PLP. Assays were allowed to proceed for 20 minutes prior to processing and quantitation as described in section 23.0.

A short description of series [5]: MND enzyme temperature optimum assay. Format: biochemical. As to conditions: 20 min assays at 20° C.-80° C., pH 8.0, 7.5 μM thebaine. How it is done:
Enzyme assays with 100 μl purified MND enzyme (˜36 μg), 7.5 μM thebaine, and 30 mM potassium phosphate pH 8.0 in a total assay volume of 200 μl were performed in duplicate and allowed to incubate at the following temperatures for 20 minutes: 20° C., 25° C., 30° C., 40° C., 50° C., 60° C., 70° C. and 80° C. Assays with purified pET28a empty vector control were included at each temperature. Assays were quenched by the addition of 400 μl MeOH followed by rapid mixing for 30 s then subject to centrifugation (16,000×g, 30 min, RT). Samples were diluted further (total of 50 fold dilution) to achieve an analyte concentration of 0.15 μM prior to filtration (low protein binding 0.2 μm, 4 mm, PTFE; Millipore) and introduction into the QTRAP 6500 using Method 1.

Series [6] can be described thus: MND solvent stability assays. Format: biochemical. As to conditions: for reduction in activity: pH 7.0, 30° C., 20 min. The method, then:
FIG. 27. […] Enzyme assays with 5% and 25% of DMSO, methanol, chloroform, tetrahydrofuran, toluene, heptane, and diethyl ether were performed in duplicate and contained 30 mM potassium phosphate buffer pH 7.0, 36 μg purified enzyme, and 1500 pmol of thebaine. Assays were allowed to proceed for 20 min at 30° C. and analyzed by LC-MS/MS using the QTRAP 6500.
Enzymes used in pharma manufacturing must withstand harsh conditions and tolerate solvents, especially if the substrate is insoluble in water (FIG. 27). MND activity was tested in the following solvents at 5% and 25% concentration: DMSO, methanol, chloroform, tetrahydrofuran, toluene, heptane, and diethyl ether.

B1: MND enzyme: morphinan N-demethylase identified from the Methylobacterium Thebainfresser, amino acid sequence SEQ ID NO: 2, His-tagged, expressed in E. coli (protein)
chain: MTEKTPKLGSEAANKLGLEADISRRDMVGGVLIGAGAALLASVAPGAINRALAEGPSRLPPVRGSGTGWRGIEIADDWQGPGGIGDYSKSNGNTGKVIRDAHAGIRNHEFEKRLATASDVNEKYDVIIVGAGISGLHSAYDLLRQRPNIKILMLDNHAIFGGEAKQNKMEVDGQALYGGQGPTLYSFVGDDLPSWKGNPALASIMELKTYPKEFGLPTETTWSDKKTDVKVPVDLWFSMASPSQTDIAYRWEGSGLVKNPLLNSFRDAPVSQKSKDAIALMLAVDNGAKRPVEPVGDVSTWVDNMTYAEFLKKVYGADDEAVQLVDQIDVVGTAGLGGDVFNASLAALGLNQYGGIELWNGGLQGLSLPTGNGGVGRSILRKFMPGAIKGGTSLTDTLFGDVNWDVLDHANNNVRIRLNSTVVGVQNNETPTGTKDATVFFLHDNRLYKAKGKAVIMGTPQQVNRNVCLNLPNHLSEAMGDFHHAPILVVNVALRNWKSMEKAGVSGLRWFGEYPGIGQIVRSMVIDGKEIMPCDPSKPAVMTFYIPMNQATRGMPRGEQAMTARHMLFNLTFADIELLIRDQLTRAFGSYGFDAKRDIAAIVANRWGHALVCAGPGFYTGLNGKPPVSKVITAGWDRVAFGHSDLSGRQAWTVAVNYARTAVANVFPKI
modifications: His tag; Methylobacterium Thebainfresser
For B1, the “morphinan N-demethylase activity (northebaine production, in words)” value in series [1] is listed as “showed morphinan N-demethylase activity”. The “ability to demethylate thebaine after pre-incubation (stability)” value in series [2] was “maintained its ability to demethylate thebaine”. For the same molecule, in series [3] (citrate buffer pH 4, 30° C., not observed in glycine-HCL buffer), the “northebaine production at pH 4 compared with pH 5-10.5” value is “nearly twice as much”. Also, the “difference in northebaine production within the pH range” value in series [3] (pH range of 5-10.5, 30° C.) was “no significant difference”. Also, the “amount of northebaine produced after Proteinase K treatment of the enzyme” value in series [4] is given as “increased”. Also, the “temperature of highest northebaine accumulation” value in series [5] is 60 °C. Moreover, the “activity (in words)” value is “little to no reduction in activity” in series [6] (5% DMSO); “little to no reduction in activity” in series [6] (5% methanol); “little to no reduction in activity” in series [6] (5% toluene); “completely abolished” in series [6] (25% chloroform); “completely abolished” in series [6] (25% tetrahydrofuran); “no reduction in activity” in series [6] (heptane, outlier, heptane sat on top of the reaction). Moreover, the reduction in activity in series [6] (25% DMSO) is 21%; in series [6] (25% methanol) it was 43%; in series [6] (25% toluene), 44%; in series [6] (diethyl ether (25%)), 66%.
